In the supplement of paper PMC10567573:

B1: YPEL3 (parent)
chain: SKPKTFQAYLDDCHRRYSCAHCRA

Variants of: B1
Assay: protein stability index of a GFP-peptide fusion (GPS, HEK-293T) (PSI 1-6); higher = more stable
Conditions: c terminus: a fixed tail appended
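Further: lentivirally expressed fusions sorted by FACS into six bins by GFP to DsRed ratio, PSI derived from sequencing read proportions per bin multiplied by bin number.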

First: SKPKTFQAYLDLCHRRYSCAHCRA [D12L]
Second: SKPKTFQAYLDWCHRRYSCAHCRA [D12W]
The protein stability index of the first is higher: 2.34 for the first, 1.67 for the second.

Compared with SKPKTFQAYLDRCHRRYSCAHCRA [D12R], SKPKTFQAYLDYCHRRYSCAHCRA [D12Y] is lower in protein stability index: 2.4 for the first, 2.28 for the second.

Compared with SKPKTFQAYLDCCHRRYSCAHCRA [D12C], SKPKTFQAYLDACHRRYSCAHCRA [D12A] is lower in protein stability index: 2.74 for the first, 2.19 for the second.

Going from SKPKTFQAYLDFCHRRYSCAHCRA [D12F] to SKPKTFQAYLDNCHRRYSCAHCRA [D12N], the protein stability index rises from 1.7 to 2.12.

Compared with SKPKTFQAYLDKCHRRYSCAHCRA [D12K], SKPKTFQAYLDHCHRRYSCAHCRA [D12H] is lower in protein stability index: 2.9 for the first, 2.35 for the second.

First: SKPKTFQAYLDMCHRRYSCAHCRA [D12M]
Second: SKPKTFQAYLDSCHRRYSCAHCRA [D12S]
The protein stability index of the first is higher: 2.69 for the first, 2 for the second.

First: SKPKTFQAYLDICHRRYSCAHCRA [D12I]
Second: SKPKTFQAYLDDCHRAYSCAHCRA [R16A]
The protein stability index of the first is higher: 2.22 for the first, 1.76 for the second.

Going from SKPKTFQAYLDDCHRVYSCAHCRA [R16V] to SKPKTFQAYLDDCHRYYSCAHCRA [R16Y], the protein stability index falls from 2.34 to 1.83.

Going from SKPKTFQAYLDDCHRGYSCAHCRA [R16G] to SKPKTFQAYLDDCHRKYSCAHCRA [R16K], the protein stability index rises from 1.33 to 1.73.

First: SKPKTFQAYLDDCHREYSCAHCRA [R16E]
Second: SKPKTFQAYLDDCHRIYSCAHCRA [R16I]
The protein stability index of the first is higher: 3.04 for the first, 1.55 for the second.

Going from SKPKTFQAYLDDCHRSYSCAHCRA [R16S] to SKPKTFQAYLDDCHRNYSCAHCRA [R16N], the protein stability index falls from 1.59 to 1.45.

Going from SKPKTFQAYLDDCHRTYSCAHCRA [R16T] to SKPKTFQAYLDDCHRPYSCAHCRA [R16P], the protein stability index falls from 2.46 to 1.94.

Compared with SKPKTFQAYLDDCHRDYSCAHCRA [R16D], SKPKTFQAYLDDCHRMYSCAHCRA [R16M] is lower in protein stability index: 2.45 for the first, 1.88 for the second.

Going from SKPKTFQAYLDDCHRHYSCAHCRA [R16H] to SKPKTFQAYLDDCHRCYSCAHCRA [R16C], the protein stability index rises from 2.3 to 2.4.

Going from SKPKTFQAYLDDCHRQYSCAHCRA [R16Q] to SKPKTFQAYLDDCHRFYSCAHCRA [R16F], the protein stability index falls from 2.5 to 1.76.

Compared with SKPKTFQAYLDDCHRLYSCAHCRA [R16L], SKPKTFQARLDDCHRRYSCAHCRA [Y9R] is lower in protein stability index: 2.33 for the first, 1.94 for the second.

Going from SKPKTFQAKLDDCHRRYSCAHCRA [Y9K] to SKPKTFQATLDDCHRRYSCAHCRA [Y9T], the protein stability index falls from 1.93 to 1.52.

Compared with SKPKTFQAPLDDCHRRYSCAHCRA [Y9P], SKPKTFQANLDDCHRRYSCAHCRA [Y9N] is lower in protein stability index: 3.08 for the first, 2.17 for the second.

Going from SKPKTFQAQLDDCHRRYSCAHCRA [Y9Q] to SKPKTFQASLDDCHRRYSCAHCRA [Y9S], the protein stability index falls from 2.45 to 1.4.

First: SKPKTFQALLDDCHRRYSCAHCRA [Y9L]
Second: SKPKTFQAILDDCHRRYSCAHCRA [Y9I]
The protein stability index of the first is lower: 1.96 for the first, 2 for the second.

Compared with SKPKTFQAWLDDCHRRYSCAHCRA [Y9W], SKPKTFQAVLDDCHRRYSCAHCRA [Y9V] is higher in protein stability index: 1.93 for the first, 2.41 for the second.

Compared with SKPKTFQAMLDDCHRRYSCAHCRA [Y9M], SKPKTFQAYLDDCHRRYFCAHCRA [S18F] is higher in protein stability index: 1.89 for the first, 1.91 for the second.

Compared with SKPKTFQAYLDDCHRRYECAHCRA [S18E], SKPKTFQAYLDDCHRRYMCAHCRA [S18M] is higher in protein stability index: 1.52 for the first, 2.73 for the second.

Going from SKPKTFQAYLDDCHRRYICAHCRA [S18I] to SKPKTFQAYLDDCHRRYRCAHCRA [S18R], the protein stability index rises from 2.37 to 2.56.

Compared with SKPKTFQAYLDDCHRRYLCAHCRA [S18L], SKPKTFQAYLDDCHRRYQCAHCRA [S18Q] is lower in protein stability index: 2.14 for the first, 1.86 for the second.

Compared with SKPKTFQAYLDDCHRRYGCAHCRA [S18G], SKPKTFQAYLDDCHRRYPCAHCRA [S18P] is lower in protein stability index: 2.5 for the first, 2.15 for the second.

Going from SKPKTFQAYLDDCHRRYKCAHCRA [S18K] to SKPKTFQAYLDDCHRRYNCAHCRA [S18N], the protein stability index rises from 2.01 to 2.06.

Compared with SKPKTFQAYLDDCHRRYYCAHCRA [S18Y], SKPKTFQAYLDDCHRRYWCAHCRA [S18W] is higher in protein stability index: 1.48 for the first, 1.52 for the second.

Going from SKPKTFQAYLDDCHRRYDCAHCRA [S18D] to SKPKTFQAYLDDCHRRYTCAHCRA [S18T], the protein stability index rises from 1.5 to 2.37.

Compared with SKPKTFQAYLDDCHRRKSCAHCRA [Y17K], SKPKTFQAYLDDCHRRFSCAHCRA [Y17F] is lower in protein stability index: 3.43 for the first, 3.01 for the second.

First: SKPKTFQAYLDDCHRRESCAHCRA [Y17E]
Second: SKPKTFQAYLDDCHRRLSCAHCRA [Y17L]
The protein stability index of the first is higher: 2.66 for the first, 2 for the second.

First: SKPKTFQAYLDDCHRRHSCAHCRA [Y17H]
Second: SKPKTFQAYLDDCHRRMSCAHCRA [Y17M]
The protein stability index of the first is higher: 2.07 for the first, 1.64 for the second.

First: SKPKTFQAYLDDCHRRASCAHCRA [Y17A]
Second: SKPKTFQAYLDDCHRRDSCAHCRA [Y17D]
The protein stability index of the first is lower: 1.99 for the first, 2.44 for the second.

Compared with SKPKTFQAYLDDCHRRGSCAHCRA [Y17G], SKPKTFQAYLDDCHRRNSCAHCRA [Y17N] is lower in protein stability index: 2.02 for the first, 1.8 for the second.

Compared with SKPKTFQAYLDDCHRRTSCAHCRA [Y17T], SKPKTFQAYLDDCHRRRSCAHCRA [Y17R] is higher in protein stability index: 2.37 for the first, 2.79 for the second.

First: SKPKTFQAYLDDCHRRSSCAHCRA [Y17S]
Second: SKPKTFQAYLDDCHRRCSCAHCRA [Y17C]
The protein stability index of the first is lower: 1.89 for the first, 3.26 for the second.

Going from SKPKTFQAYLDDCHRRPSCAHCRA [Y17P] to SKPKTFQAYLDDCHRRVSCAHCRA [Y17V], the protein stability index falls from 1.93 to 1.39.

Compared with SKPKTFQAYLDDCHRRISCAHCRA [Y17I], SKPKTFQAYLDDCKRRYSCAHCRA [H14K] is higher in protein stability index: 2.13 for the first, 2.78 for the second.

Going from SKPKTFQAYLDDCYRRYSCAHCRA [H14Y] to SKPKTFQAYLDDCVRRYSCAHCRA [H14V], the protein stability index rises from 1.56 to 2.15.

Going from SKPKTFQAYLDDCTRRYSCAHCRA [H14T] to SKPKTFQAYLDDCSRRYSCAHCRA [H14S], the protein stability index rises from 1.8 to 2.06.

First: SKPKTFQAYLDDCFRRYSCAHCRA [H14F]
Second: SKPKTFQAYLDDCDRRYSCAHCRA [H14D]
The protein stability index of the first is lower: 1.07 for the first, 1.67 for the second.

First: SKPKTFQAYLDDCIRRYSCAHCRA [H14I]
Second: SKPKTFQAYLDDCERRYSCAHCRA [H14E]
The protein stability index of the first is higher: 2.05 for the first, 1.56 for the second.

First: SKPKTFQAYLDDCGRRYSCAHCRA [H14G]
Second: SKPKTFQAYLDDCCRRYSCAHCRA [H14C]
The protein stability index of the first is higher: 3.08 for the first, 2.28 for the second.

First: SKPKTFQAYLDDCARRYSCAHCRA [H14A]
Second: SKPKTFQAYLDDCMRRYSCAHCRA [H14M]
The protein stability index of the first is lower: 2.03 for the first, 2.34 for the second.

First: SKPKTFQAYLDDCRRRYSCAHCRA [H14R]
Second: SKPKTFQAYLDDCNRRYSCAHCRA [H14N]
The protein stability index of the first is lower: 1.73 for the first, 2.19 for the second.

First: SKPKTFQAYLDDCWRRYSCAHCRA [H14W]
Second: SKPKTFQAYLDDCPRRYSCAHCRA [H14P]
The protein stability index of the first is higher: 3.12 for the first, 2.05 for the second.

Going from SKPKTFQAYLDDCLRRYSCAHCRA [H14L] to SKPKTFQAYLDDCQRRYSCAHCRA [H14Q], the protein stability index rises from 1.82 to 2.23.
